This note sets out measurements from patent US12643954B2, “Anti-CD36 antibodies and their use to treat cancer” (ONA Therapeutics, S.L., priority 2020, dated 2026).

Where two headings read alike, the source gives them in different places.

Data set [1] addresses T1, CD36 (Homo sapiens, UniProt P16671). The experiment in a line: Surface plasmon resonance (Biacore T200) affinity for human CD36. The format is binding. Particulars: SPR. How it is done: The affinity of ONA-0-v1, 1G04, and a commercial anti-CD36 antibody (JC63.1) for human CD36 was also measured by surface plasmon resonance (SPR) using a Biacore T200. 1G04 was analysed using a protein A capture surface, with a capture range of 100-150 RU and an antigen titration range of 3.3-333 nM. The mouse antibodies ONA-0-V1 and the commercial anti-CD36 antibody were analysed using an anti-mouse IgA capture surface, with a capture range of 160-180 RU and an antigen titration range of 3.3-333 nM. For each single analysis cycle a titration of five antigen concentrations were injected over the captured antibody and then the dissociation of the complex was measured. A double referencing method was employed in which data from the reference surfaces where no antibody was captured (fc 1 and 3 respectively) were subtracted from the antibody bound capture surface (fc 2 and 4). Blank injections of buffer were run for every antigen titration cycle and then subtracted from analyte injection cycles, to correct for small changes in the antibody capture surface density. All analysis was performed at 25° C., and the sample rack was kept at 6° C. during experimental runs. Each experiment was run at least three times with the mean binding constants generated from at least two independent assays reported. All analysis was performed in PBS-T running buffer at 40 μL/min.
Background: Surface plasmon resonance follows binding to a sensor surface in real time, without labels.
Target sequence in this assay (P16671 whole entry): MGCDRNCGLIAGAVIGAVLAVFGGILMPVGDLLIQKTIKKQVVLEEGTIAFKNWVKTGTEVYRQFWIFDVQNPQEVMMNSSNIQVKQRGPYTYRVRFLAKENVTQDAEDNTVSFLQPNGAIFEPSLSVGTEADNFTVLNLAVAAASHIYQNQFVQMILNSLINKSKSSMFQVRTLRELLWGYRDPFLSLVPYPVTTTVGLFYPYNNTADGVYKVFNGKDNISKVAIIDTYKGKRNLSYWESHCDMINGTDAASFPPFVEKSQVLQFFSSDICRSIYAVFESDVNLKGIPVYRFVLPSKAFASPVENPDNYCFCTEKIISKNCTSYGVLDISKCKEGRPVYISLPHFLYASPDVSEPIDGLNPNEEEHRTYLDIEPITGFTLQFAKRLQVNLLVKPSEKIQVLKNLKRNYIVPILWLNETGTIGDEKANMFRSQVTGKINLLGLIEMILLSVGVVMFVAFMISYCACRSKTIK

The test system of data set [2] is FaDu cells. The experiment in a line: FaDu orthotopic mouse model of oral cancer metastasis. It is filed as in vivo. The protocol:
NOD scid gamma (NSG) (NOD.Cg-Prkdc^scidII2rg^tm1Wj1/SzJ) mice were purchased from Charles River and crossed in-house. All mice were housed under a regimen of 12h light/12h dark cycles and SPF conditions, and all procedures were evaluated and approved by the CEEA (Ethical Committee for Animal Experimentation) from the Government of Catalunya. SCC intra-tongue injection was performed as previously described (Oskarsson et al., 2014; Nieman et al., 2011). Briefly, mice were anesthetized by intraperitoneal injection with a mixture of 50 mg per kg of ketamine and 0.5 mg per kg of medetomidin, and SCC cells resuspended in 30 μl PBS were injected into each mouse tongue with a BD ultra-fine 6 mm needle. Mice were monitored for the luciferase bioluminescent signal immediately after injection (TO) and once weekly thereafter with a Xenogen IVIS Imaging System-100 (Caliper Life Sciences). Briefly, animals were injected by retro-orbital injection with 50 μl of D-luciferin (Promega) diluted in 1×PBS at 5 mg ml^−1. Continuous administration of isofluorane gas was provided to ensure anesthetizing animals during imaging. Data was quantified with the Living Image software version 4.4 (Caliper Life Sciences). Quantifications were calculated with unsaturated pixels. Color scale minimum and maximum values are shown in pictures.
Studies on the combination of the effects of the ONA-0-v1 anti-CD36 antibody, both with and without cisplatin, were performed in NSG mice (immuno-deficient). The studies included both male and female mice. All mice were inoculated with commercially available FaDu (ATCC) cancer cells, transduced with a retroviral vector expressing luciferase and the green fluorescent protein (Luc-GFP). FaDu cells were derived from a squamous cell carcinoma (i.e., from an oral cancer). Prior to inoculation, the FaDu cells were cultured in a humidified incubator at 37° C. with 5% CO2, and were grown in EMEM (LONZA) supplemented with 5 μg ml^−1 penicillin/streptomycin and 10% FBS (GIBCO).
For each mouse, 100,000 FaDu cells were inoculated via orthotopic injection.
Treatment of the inoculated mice began nine days after inoculation with the cancer cells. Inoculated mice were divided into four distinct treatment groups.
Antibody treatments were administered via intraperitoneal (i.p.) injection daily at a dose of 1 mg/kg. Cisplatin was administered twice weekly at a dose of 2 mg/kg (Groups 2 and 4). […] During the course of treatment, mice were observed once weekly using an in vivo imaging system (IVIS). Further, mouse body weight was measured twice weekly to update appropriate dosage amounts. At the end of the treatment period, the mice were sacrificed, and organs and tissues were collected for performance of immunohistochemistry analysis.

Data set [3] concerns the target T2, mouse CD36 (Mus musculus, UniProt Q08857).
T2 construct: purchased Sino Biological 50422-M08H
The experiment in a line: ELISA binding to plate-coated mouse CD36. The settings on record: recombinant mouse CD36 coated plates. How it is done:
(§1) To perform ELISA assays, 96-well ELISA plates were coated over night with human CD36 (Sino Biological, reference 10752-H08H) or mouse CD36 (Sino Biological, reference 50422-M08H) recombinant proteins at a concentration of 0.25 mg/ml. After two washes with PBS, plates were blocked with 4% skimmed milk in PBS for 1 hour at 37° C. Blocking solution was discarded and plates were washed five times with 200 μl/well PBS-Tween20 (0.5%). Primary antibodies were either omitted (control blocking solution treatment) or mixed in blocking solution at several dilutions ranging from 0.01 nM to 0.5 μM. The primary antibody solutions were added to the wells and incubated over night at 4° C. After 5 washes with 200 ul/well of PBS-Tween20 (0.5%), plates were incubated for 1 hour at room temperature with a goat anti-mouse HRP-conjugated antibody (Abeam, reference ab97235) diluted 1:2000 in blocking solution. Plates were then washed 5 times with 200 μl/well of PBS-Tween20 (0.5%), incubated with 100 μl/well TMB and detected after 10 minutes, 30 minutes, or 60 minutes with a spectrophotometer at a wave length of 630 nm.

For data set [4], the target named is T1, CD36. Description: ELISA binding to plate-coated human CD36. Particulars: recombinant human CD36 coated plates. Set-up: purchased Sino Biological 10752-H08H. The protocol:
as §1
Target sequence in this assay (P16671 30-439 limits assumed): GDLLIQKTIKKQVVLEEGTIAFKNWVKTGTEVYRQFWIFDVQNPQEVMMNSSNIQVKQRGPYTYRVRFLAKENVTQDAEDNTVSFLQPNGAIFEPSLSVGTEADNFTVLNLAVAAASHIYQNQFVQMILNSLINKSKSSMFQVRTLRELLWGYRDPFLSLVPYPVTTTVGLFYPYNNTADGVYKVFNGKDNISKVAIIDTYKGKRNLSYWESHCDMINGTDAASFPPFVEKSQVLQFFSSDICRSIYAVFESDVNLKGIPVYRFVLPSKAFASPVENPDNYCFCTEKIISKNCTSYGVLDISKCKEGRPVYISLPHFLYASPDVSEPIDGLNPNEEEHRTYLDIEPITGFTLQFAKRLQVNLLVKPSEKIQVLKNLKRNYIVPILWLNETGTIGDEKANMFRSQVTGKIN

Where [5] appears, read: antibody alone 1 mg/kg i.p. daily.
The mark [6] stands for this setting: antibody in combination with cisplatin.

T2 sequence (Q08857 30-439 limits assumed): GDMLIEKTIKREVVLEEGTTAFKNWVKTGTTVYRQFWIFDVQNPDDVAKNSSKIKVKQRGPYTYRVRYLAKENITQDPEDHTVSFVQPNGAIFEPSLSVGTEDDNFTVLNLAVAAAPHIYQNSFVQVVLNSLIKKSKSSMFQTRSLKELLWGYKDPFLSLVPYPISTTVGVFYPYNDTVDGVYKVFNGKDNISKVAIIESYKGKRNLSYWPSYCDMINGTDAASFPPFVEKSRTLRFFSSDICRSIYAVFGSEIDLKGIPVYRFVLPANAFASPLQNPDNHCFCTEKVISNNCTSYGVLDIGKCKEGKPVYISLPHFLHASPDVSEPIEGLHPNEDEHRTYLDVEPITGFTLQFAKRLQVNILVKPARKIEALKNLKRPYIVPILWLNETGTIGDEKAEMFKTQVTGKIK

B1: ONA-0-v1: murine IgA anti-CD36 antibody; heavy chain SEQ ID NO: 5, light chain SEQ ID NO: 7 (antibody)
heavy: QVQLKQSGADLVRPGASVKLSCKASGYTFTDYYINWVKQRPGQGLEWIARIYPGSGNTYYNEKFKGKATLTAEKSSSTAYMQLSSLTSEDSAVYFCARGIGGGFGMDYWGQGTSVTVSSESARNPTIYPLTLPPVLCSDPVIIGCLIHDYFPFGTMNVTWGKSGKDITTVNFPPALASGGRYTMSSQLTLPAVECPEGESVKCSVQHDSNPVQELDVNCSPTPPPPITIPSCQPSLSLQRPALEDLLLGSDASITCTLNGLRNPEGAAFTWEPSTGKDAVQKKAAQNSCGCYSVSSVLPGCAERWNSGASFKCTVTHPESGTLTGTIAKVTVNTFPPQVHLLPPPSEELALNELLSLTCLVRAFNPKEVLVRWLHGNEELSPESYLVFEPLKEPGEGATTYLVTSVLRVSAETWKQGDQYSCMVGHEALPMNFTQKTIDRLSGKPTNVSVSVIMSEGDGICY
light: SIVMTQTPKFLLVSAGDRITITCKASQSVSDDVAWYQQKPGQSPKLLIYYASNRYTGVPDRFTGSGYGTDFTFTISTVQAEDLAVYFCQQDYSSPLTFGAGTKLEIKRADAAPTVSIFPPSSEQLTSGGASVVCFLNNFYPKDINVKWKIDGSERQNGVLNSWTDQDSKDSTYSMSSTLTLTKDEYERHNSYTCEATHKTSTSPIVKSFNRNEC
modifications: ONA-0-v1 heavy chain; ONA-0-v1 light chain
For B1, in data set [1] (1-to-1 model, 25° C.), the ka came out at 632000 M⁻¹ s⁻¹ and the kd was determined as 0.00354 s⁻¹. Besides, in data set [1] (2-state model), the ka1 was 108000 M⁻¹ s⁻¹, the ka2 worked out at 0.000558 s⁻¹, the kd1 was 0.0023 s⁻¹ and the kd2 turned out to be 0.000393 s⁻¹. In addition, in data set [1] (bivalent model), the ka2 was 6.74E−05 1/RUs, the kd1 was 0.00259 s⁻¹ and the kd2 stood at 0.000527 s⁻¹. Also, the ka1 in data set [1] (bivalent model, first ka1 column) was found to be 33400 M⁻¹ s⁻¹. Besides, the Kd in data set [1] (bivalent model, read-out: KD1) is 77.3 nM. In addition, the Kd in data set [1] (bivalent model, read-out: KD2) was 986 nM. Moreover, in data set [2] (NSG mice), the “tolerability over the course of treatment” value is listed as “well-tolerated”. In data set [2] (antibody alone), the “effect on mouse body weight relative to isotype control” value is “did not have any effects” and the “effect on platelet count relative to isotype control” value is reported as “did not have any effects”. Moreover, in data set [2] (setting [5]), the “growth of lymph node metastases (IVIS relative intensity)” value is “able to inhibit growth” and the “inhibition of lymph node metastatic tumor growth relative to IgA isotype control (ratio of IVIS intensity end/start)” value is reported as “greater than 50%”. In data set [2] (setting [6]), the “effect on cisplatin-mediated weight loss and decrease in platelet count” value is “did not significantly enhance”; the “growth of lymph node metastases (IVIS relative intensity)” value is recorded as “almost complete inhibition”. Besides, the “mice in which metastasis into lymph nodes was prevented” value in data set [2] (antibody in combination with cisplatin, eight tested mice) is recorded as “five of the eight”. Besides, the “mice in which metastasis into lymph nodes was prevented” value in data set [2] (single agent, eight tested mice per group) is recorded as “one of the eight”. The “effect on primary tumor (IVIS imaging and H&E staining)” value in data set [2] (single agent, antibody 1 mg/kg i.p. daily, cisplatin 2 mg/kg twice weekly) is given as “did not have a statistically significant effect”. The “binding to mouse CD36 in ELISA” value in data set [3] is given as “able to specifically bind”. In addition, in data set [4], the “binding to human CD36 in ELISA” value is “able to specifically bind”.
